# Measured values: patent US20250250357A1 (NANJING ZAIMING PHARMACEUTICAL, published 2025)
# Positions count from the first letter of the chain named. Read-outs that look alike come from different tables or passages of the source.
# T1: monkey MSLN full-length protein (NCBI: XP_028696439.1) expressed on HEK293T-monkey MSLN cells (monkey)
# T1 construct: Whole encoded precursor
# T1 chain: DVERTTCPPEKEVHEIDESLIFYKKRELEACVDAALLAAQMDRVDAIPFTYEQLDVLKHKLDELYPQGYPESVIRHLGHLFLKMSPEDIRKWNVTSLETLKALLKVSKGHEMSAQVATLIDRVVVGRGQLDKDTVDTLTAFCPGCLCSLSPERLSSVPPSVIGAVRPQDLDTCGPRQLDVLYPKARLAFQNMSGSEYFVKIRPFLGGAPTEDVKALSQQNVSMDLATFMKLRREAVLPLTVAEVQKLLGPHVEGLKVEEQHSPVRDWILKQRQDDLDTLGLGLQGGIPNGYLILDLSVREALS
# B1: S009-F7.25.19 (antibody, human IgG1, kappa, V domains shown)
# VH: QVQLQQPGTELVKPGASVKLSCKASGYTFTSYWMHWVKQRPGQGLEWIGNIIPSNGGTKYNEKFKSKATLTVDKSSSTAYMQLSSLTSEDSAVYYCSPHYYGGSPGFAYWGQGTLITVSA
# VL: DIVMTQSQKFMSTSVGDRVSVICKASQNVGTNVAWYQQKPGQSPKALIYSASYRYSGVPDRFTGSGSGTDFTLTISNVQSEDLAEYFCQQYNSYPLTFGGGTKLEIKR
# notes: human-murine chimeric antibody, human IgG1/kappa constant regions
# B2: S009-F7.26.15 (antibody, human IgG1, kappa, V domains shown)
# VH: DVQLQESGPGLVKPSQTVFLTCTVTGISITTGNYRWSWIRQFPGNKLEWIGYIYYTGFITYNPSLTSRTTITRDTPKNQFFLEMKSLTAEDTATYYCARDDYDYDVFAYWGQGTLVTVSA
# VL: DIQMTQSPASLSASVGETVTITCRASGNIHNYLAWYHQKQGKSPQFLVYKAKTLADGVPSRFSGSGSGTQYSLKINRLQPEDFGSYYCQHFLSIPLTFGAGTKLELKR
# notes: as for B1
# B3: S009-F7.30.5 (antibody, human IgG1, kappa, V domains shown)
# VH: QVQLQQPKTELVKPGASVKLSCKASGYIFTTYWMHWVKQRPGQGLEWIGNVNPSNGGTMYNEKFERRATLTVDKSSSTADMQLSSLTSEDSAVYYCVPHYIGSRPGFAYWGQGTLVTVSG
# VL: B1 VL with I22T, Q38H, I48L, S76T
# notes: as for B1
# B4: S009-F7.33.24 (antibody, human IgG1, kappa, V domains shown)
# VH: B3 VH with K8G, I28T, T31S, T58S, M59N, E65K, R66N, R67K, S84N, V97A
# VL: B1 VL with I22T, V33I, S76T, L104V
# notes: as for B1
# B5: S009-F7.41.18 (antibody, human IgG1, kappa, V domains shown)
# VH: QVQLQQPGTELVKPGASVKLSCKASDYTFTSYWMHWVKQRPGQGLEWIGSINPSNGDTYYNEKFKNKATLTVDKSSSTAYMQLSSLTSDDSAVYYCARGWYFDVWGTGTTVTVSS
# VL: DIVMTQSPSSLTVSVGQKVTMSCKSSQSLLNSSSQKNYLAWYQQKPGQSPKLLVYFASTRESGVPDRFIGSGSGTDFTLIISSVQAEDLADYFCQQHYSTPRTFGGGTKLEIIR
# notes: as for B1
# B6: S009-F7.44.20 (antibody, human IgG1, kappa, V domains shown)
# VH: EVQLQQSGPELVKPGASVKIPCKASGYTFTDYNMDWVKQSHGKSLEWIGDINPSTGGTIYNQKFNGKATLTEDKSASTVYMEFRSLTSDDTAVYYCARRRIGTGYFDVWGTGTTVTVSS
# VL: QIVLTQSPALMSASPGEKVTLTCSASSSVISSYLSWYQQKPGSSPKLLIYRTSNLASGVPARFSGSGSGTSYSLTISSMEAEDAASYFCHQWSSFPYTFGGGTKLEIKR
# notes: as for B1
# B7: S009-F7.48.1 (antibody, human IgG1, kappa, V domains shown)
# VH: QVQLQQPGTELVKPGASVKLSCKASGYTFTSYWMHWVKQRPGQGLEWIGNINPSNGGTNNNENFKSKATLTVDTSSSTAYMQLSSLTSEDSAVYYCVRNGYHGYWYFDVWGTGTTVTVSS
# VL: B1 VL with I22T, K39Q, G66V
# notes: as for B1
# B8: S009-F7.53.2 (antibody, human IgG1, kappa, V domains shown)
# VH: EVQLQQSGPELVKPGASVKIPCKTSGYTFTDYNMDWVKQSHGKSLEWIGDINPNTDGAIYNQKFQNKATLTVDKSSSTAYMELRSLTSEDTAVYYCTRRKLGRKFFDYWGQGTTLTVSS
# VL: QIVLTQSPAIMSASPGEQVTMTCSASSSVGYMNWYQQKPGSSPRLLIYDTSNLASGVPVHFSGSGSGTSYSLTISRMEAAFAATYYCQQWYVYPYTFGGGTKLEIKR
# notes: as for B1
# B9: S009-F7.61.21 (antibody, human IgG1, kappa, V domains shown)
# VH: DVQLQQSGPELVEPGASVRIPCKAAGHTFTDYNVDWVKQSHGQSLEWIGDVNPNTDGAIYNQKFEGKATLTVDTSSSTAYMELRSLTSEDTAVYFCARRRLGQGGFDSWGQGTTLTVSS
# VL: B6 VL with I2V, L10I, S24G, V29L, S32K, S35Y, L48W, R51S, F95Y, L105V
# notes: as for B1
# B10: S009-F7.65.13 (antibody, human IgG1, kappa, V domains shown)
# VH: EVQLQQSGPELVKPGTSVKILCKASGDTFTAYNMDWVKQRHGQSLEWIGDINPNTDSTIYNQKFEGKAILTVDKSSSTAYMELRSLTSEDTAVYYCARRKLGRGYFDYWGQGTTLTVSS
# VL: QIVLTQSPAIMSASPGEKVTMTCSVNLSVRYIYWYQQKPGSSPRLLIHDTSNLASGVPVRFSGSGSGTSYSLTISRMEAEDAATYYCQQWSSFPYTFGGGTKLEIKR
# notes: as for B1
# B11: S009-F7.66.12 (antibody, human IgG1, kappa, V domains shown)
# VH: QIPLQQSGPELVKPGASVRISCKASDYAFSSSWMNWVKQRPEKGLEWIGRIFVESGNTHYNDKFNGKATLTADKSSRTAYIQLSSLTSEDSAVYFCTRENIFYHGHSSWFAYWGQGTLVTVSA
# VL: DIVLTQSPASLVVSLGQRATISCRAGESVDDFGISYVHWYQQKPGQPPKLLIYRAANLESGIPARFSGSGSRTDFTLTINPVETDDVAIYYCQQNNKDPFTFGSGTKLEIKR
# notes: as for B1
# B12: S009-F7.67.12 (antibody, human IgG1, kappa, V domains shown)
# VH: QVQLQQPGTELVKPGASVRLSCRASGYSFSSYWMHWVKQRPGQGLEWLGNINPTTGDINYNEKFRNRATLAVDKSSTTAYLQLTSLTSEDSAVYFCVRHDGFLWGQGTTLTVSS
# VL: DIQMTQSPASLSASVGETVTITCRASENIYSYLAWYQQKQGKSPQLLVYYAKTLAEGVSSRFSGSGSGTQFSLKINSLQPEDFGTYYCQHQFGTPRTFGGGTKLEIRR
# notes: as for B1
# B13: S009-F7.69.8 (antibody, human IgG1, kappa, V domains shown)
# VH: EVHLQQSGPELVKPGASVRIPCKASGYTFTDYNMDWVKQSHGKSLEWIGDINPDNGGTIYTQKFKGKATLTVDKSSSTAYMELRSLTSEDTAVYYCARRLHYYGSSGLDYWGQGTTLTVSS
# VL: DIQMTQSPASLSAYVGETVTITCRASGNIHNYLAWYQQKQGKSPQLLVYNAKTLADGVPSRFSGSGSGTQYSLKINSLQPEDFGSYYCQHFWSTVWTFGGGTKLEIKR
# notes: as for B1
# B14: S009-F8-9.16 (antibody, human IgG1, kappa, V domains shown)
# VH: EVHLQQSGPVLVKPGASVKMSCKASGYTFTDYFMNWVKQSHGKSLEWIGVINPHNGYVNYNQKFQGRATLTVDKSSSTVYMELNSLTSEDSAVYHCARSAESAWFAYWGQRTLVTVSA
# VL: DVLMTQTPLSLPVSLGDQVSISCRSSQSIVHVKGNTYLEWYLQKPGQSPELLIYKVSNRFSGVPDRFSGGGSGTDFTLKISRVEPEDLGVYYCFQGSHLPYTFGGGTKLEIKR
# notes: as for B1
# Key:
# [1] = molecular target: T2, human MSLN protein endogenously expressed on OVCAR3 tumor cells (human, UniProt Q13421 296-598); test: FACS on OVCAR3 cells
# T2 construct: whole, on cells; Endogenous target on OVCAR3 cells; kept apart from the recombinant full-length construct; also called mesothelin
# T2 sequence (Q13421 other isoform, or with tags, fused parts or gaps): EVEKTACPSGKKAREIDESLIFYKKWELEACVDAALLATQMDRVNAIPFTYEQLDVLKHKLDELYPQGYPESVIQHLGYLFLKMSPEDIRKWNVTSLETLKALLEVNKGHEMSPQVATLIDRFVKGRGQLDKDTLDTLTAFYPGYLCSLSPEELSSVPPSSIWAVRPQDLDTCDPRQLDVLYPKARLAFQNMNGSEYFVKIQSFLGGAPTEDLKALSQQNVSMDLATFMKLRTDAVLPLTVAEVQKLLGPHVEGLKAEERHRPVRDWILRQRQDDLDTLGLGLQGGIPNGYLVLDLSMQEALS
# Experimental: (§1) The desired cells were expanded to the logarithmic growth phase in a T-75 cell culture flask. […] After the cells from the previous step were subjected to cell counting, the cell pellet was resuspended to 2×10⁶ cells/mL in a blocking buffer of [PBS+2% (w/w) BSA] and added into a 96-well FACS reaction plate at 50 μL/well. A chimeric antibody (a sample to be tested) was added at 50 μL/well, and the plate was incubated on ice for 2 h. […] After the plate was centrifuged and washed 5 times with a PBST buffer, assay and analysis were performed by FACS (FACS CantoII, purchased from BD). Data analysis was performed by software (Flowjo) to obtain the mean fluorescence intensity (MFI) of the cells.
# [2] = molecular target: T3, human MSLN-R3 protein (Met487-Ser606 of NCBI AAH09272.1) expressed on HEK293T-hMSLN-R3 cells (human, UniProt Q13421 487-606); test: FACS on HEK293T-hMSLN-R3 cells;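 note: flow cytometry binding of test chimeric antibodies to cells after 2 h incubation on ice, with values derived from the mean fluorescence intensity of the cells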
# T3 construct: also called Region3
# Experimental: as §1
# [3] = molecular target: T1, monkey MSLN full-length protein (NCBI: …); test: FACS on HEK293T-monkey MSLN cells;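 note: flow cytometry binding of chimeric antibodies to the cells, with a 2 h incubation on ice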
# Experimental: as §1
# [4] = molecular target: T4, human MSLN protein endogenously expressed on OVCAR3 tumor cells (human, UniProt Q13421 296-598); test: FACS on OVCAR3 cells
# T4 construct: whole, on cells; endogenous expression on a tumor cell line; also called human mesothelin
# T4 sequence (Q13421 other isoform, or with tags, fused parts or gaps): as above
# Experimental: as §1
# [5] = molecular target: T5, human MSLN-R3 protein expressed on HEK293T cells (HEK293T-hMSLN-R3) (human, UniProt Q13421 487-606); test: FACS on HEK293T-hMSLN-R3 cells;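 note: chimeric antibodies incubated with cells on ice for 2 h, binding read by flow cytometry as mean fluorescence intensity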
# T5 construct: C-terminal limit uncertain
# T5 sequence (Q13421 495-614): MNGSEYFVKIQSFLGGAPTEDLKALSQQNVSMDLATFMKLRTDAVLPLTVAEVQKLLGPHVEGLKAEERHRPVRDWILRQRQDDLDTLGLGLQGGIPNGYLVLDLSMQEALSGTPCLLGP
# Experimental: as §1
# T3 sequence (Q13421 495-614): as above
Binder,EC50 [1] [nM],Maximum mean fluorescence intensity [1],EC50 [2] [nM],Maximum mean fluorescence intensity [2],EC50 [3] [nM],Maximum mean fluorescence intensity [3],binding result [3],EC50 [4] [nM],Maximum mean fluorescence intensity [4],EC50 [5] [nM],Maximum mean fluorescence intensity [5]
B1,0.18,24200,0.06,5350,~0.16,43200,–,–,–,–,–
B2,0.2,16200,0.09,6940,–,108,no binding,–,–,–,–
B3,0.66,31800,0.24,6160,0.34,47400,–,–,–,–,–
B4,0.15,31200,0.06,6480,0.13,47300,–,–,–,–,–
B5,0.22,25900,0.35,7460,0.54,64200,–,–,–,–,–
B6,0.05,25700,0.04,7470,0.04,45600,–,–,–,–,–
B7,~4,24000,1.87,5150,2.88,43200,–,–,–,–,–
B8,1.09,23600,1.3,6480,1.13,47400,–,–,–,–,–
B9,1.08,23700,0.48,6250,0.75,39800,–,–,–,–,–
B10,0.87,26500,0.91,6490,0.87,50200,–,–,–,–,–
B11,0.87,21900,0.38,5900,–,60,no binding,–,–,–,–
B12,0.37,29100,0.14,6930,0.36,59300,–,–,–,–,–
B13,0.36,16600,0.14,6590,12.5,9230,–,–,–,–,–
B14,–,–,–,–,–,–,–,0.86,5380,0.53,128000
